Values quoted from earlier work in publication PMC10560217.
Like-named read-outs stand apart in the source and are kept apart here. One block for each substance: values may come before it.

Experiments:
[1] = molecular target: dmIR (Drosophila melanogaster) (UniProt P09208)
[2] = molecular target: dmIR (Drosophila melanogaster) (UniProt P09208); remark: listed apart in the source
[3] = molecular target: hIR ECD (Homo sapiens) (UniProt P06213)
[4] = molecular target: dmIR (Drosophila melanogaster) (UniProt P09208); remark: listed apart in the source

dmIR (Drosophila melanogaster), sequence (P09208 44-1310): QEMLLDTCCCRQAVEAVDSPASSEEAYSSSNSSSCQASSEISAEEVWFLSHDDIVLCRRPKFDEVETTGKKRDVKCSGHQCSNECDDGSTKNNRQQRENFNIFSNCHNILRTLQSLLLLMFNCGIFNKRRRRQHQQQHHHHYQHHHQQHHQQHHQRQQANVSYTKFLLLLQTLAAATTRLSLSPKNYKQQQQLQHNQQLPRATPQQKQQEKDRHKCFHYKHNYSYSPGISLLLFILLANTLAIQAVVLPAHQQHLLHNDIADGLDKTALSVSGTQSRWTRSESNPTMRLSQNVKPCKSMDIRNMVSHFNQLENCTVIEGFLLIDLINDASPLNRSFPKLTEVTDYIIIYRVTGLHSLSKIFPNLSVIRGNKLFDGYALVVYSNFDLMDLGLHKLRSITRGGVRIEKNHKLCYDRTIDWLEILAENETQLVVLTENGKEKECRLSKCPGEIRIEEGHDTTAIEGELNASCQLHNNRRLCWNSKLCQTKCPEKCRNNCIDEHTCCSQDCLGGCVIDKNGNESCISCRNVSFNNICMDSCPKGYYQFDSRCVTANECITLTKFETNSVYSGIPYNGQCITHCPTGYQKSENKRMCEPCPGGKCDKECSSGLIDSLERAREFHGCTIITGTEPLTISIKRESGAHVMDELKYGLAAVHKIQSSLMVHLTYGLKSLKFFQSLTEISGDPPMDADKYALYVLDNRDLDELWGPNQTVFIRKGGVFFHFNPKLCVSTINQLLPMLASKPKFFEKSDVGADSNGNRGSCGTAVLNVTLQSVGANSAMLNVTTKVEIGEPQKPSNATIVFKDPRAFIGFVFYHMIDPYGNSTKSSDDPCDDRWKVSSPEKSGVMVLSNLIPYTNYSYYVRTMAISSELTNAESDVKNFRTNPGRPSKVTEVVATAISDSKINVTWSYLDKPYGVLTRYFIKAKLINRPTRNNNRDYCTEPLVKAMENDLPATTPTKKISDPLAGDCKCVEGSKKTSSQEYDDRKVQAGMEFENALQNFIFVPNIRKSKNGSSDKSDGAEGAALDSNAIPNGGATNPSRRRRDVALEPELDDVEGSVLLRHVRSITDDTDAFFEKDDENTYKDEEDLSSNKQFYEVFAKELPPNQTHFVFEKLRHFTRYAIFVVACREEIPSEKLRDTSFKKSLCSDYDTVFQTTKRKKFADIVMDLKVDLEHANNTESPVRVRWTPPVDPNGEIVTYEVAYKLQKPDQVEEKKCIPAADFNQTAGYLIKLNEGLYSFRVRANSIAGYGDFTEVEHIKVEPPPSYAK
DILP5 DB, sequence (Q7KUD5 23-50): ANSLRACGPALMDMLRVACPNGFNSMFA
DILP5 DB, sequence (Q7KUD5 84-108): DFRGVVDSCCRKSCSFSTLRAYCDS
DILP5 C4, sequence (Q7KUD5 87-108): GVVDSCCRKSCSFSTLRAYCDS
insulin, sequence (P01308 90-110): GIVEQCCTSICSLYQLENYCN

Kd [1]: 0.76 nM
Substance: DILP5 C4 (from UniProt Q7KUD5)

Kd [2]: 5910 nM
Substance: hIGF-1 (from UniProt P05019)

Kd [3]: 30 nM
Substance: insulin (from UniProt P01308)

Kd [4]: 0.35 nM
Substance: DILP5 DB (from UniProt Q7KUD5)
